Source: US7407939B2, “Protein kinase inhibitors comprising ATP mimetics conjugated to peptides or peptidomimetics” (CureGenics Ltd., priority 2001, dated 2008)
pIC50: −log10 of the molar value. Where two headings read alike, the source gives them in different places. *1 amine or outer side, *2 acyl side, *3 side chain or, on linkers, in order; H or OH if unused. Where a SMILES comes first, the peptide text is derived from it. Where no end group is shown, it is not given here. Side-chain parts run from the residue outwards. [ ]: non-standard residue; d: D form. The star is where a group is joined. ξ: configuration not given here. X1 = 5‑aminoethylsulfonamide isoquinoline, O=S(=O)(NCCN*)c1cccc2cnccc12; Isoquinoline5sulfonyl = O=S(=O)(c1cccc2cnccc12)*; X3 = O=C(OC[C@H](Cc1ccccc1)N[*:1])[*:2]; Ethylenediamine = C(CN[*:2])N[*:1]; hLeu = CC(C)CC[C@H](N)C(=O)O; Nle = CCCC[C@H](N)C(=O)O; Orn = NCCC[C@H](N)C(=O)O; Dab = NCC[C@H](N)C(=O)O; Nva = CCC[C@H](N)C(=O)O; ξE = NC(CCC(=O)O)C(=O)O; Abu = CC[C@H](N)C(=O)O; Dap = NC[C@H](N)C(=O)O; βAla = NCCC(=O)O

Molecular target: T1, PKB (Homo sapiens, UniProt P31749)
T1 construct: His; HA; made in house
Test: PKB in vitro kinase activity assay (soluble His-HA-PKB / SPA bead screening)
Assay type: biochemical
Conditions: for PKB-kinase (spa) Assay 1, % inhibition of kinase activity / PKB-kinase (spa) Assay 2, % inhibition of kinase activity: 1 μM compound concentration

[1] = Table 3, linear 7-mer peptides, read-out: Activity PKB
[2] = chimeric PTR compounds (peptide conjugated to isoquinoline small molecule), read-out: PKB IC50

T1 sequence (P31749 whole entry, species assumed): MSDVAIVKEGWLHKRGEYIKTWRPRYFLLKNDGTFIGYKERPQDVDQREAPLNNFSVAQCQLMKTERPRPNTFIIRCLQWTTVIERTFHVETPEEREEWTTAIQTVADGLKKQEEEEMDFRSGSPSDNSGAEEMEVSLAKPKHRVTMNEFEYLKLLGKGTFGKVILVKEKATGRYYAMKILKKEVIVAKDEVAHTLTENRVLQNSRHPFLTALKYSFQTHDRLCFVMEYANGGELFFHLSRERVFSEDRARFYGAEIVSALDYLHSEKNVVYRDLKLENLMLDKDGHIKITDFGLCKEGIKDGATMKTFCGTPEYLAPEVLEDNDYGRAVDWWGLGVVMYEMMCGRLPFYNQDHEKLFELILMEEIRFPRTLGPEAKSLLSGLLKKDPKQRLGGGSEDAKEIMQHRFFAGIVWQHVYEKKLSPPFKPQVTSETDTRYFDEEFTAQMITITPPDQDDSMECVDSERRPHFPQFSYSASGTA

| PKB-kinase (spa) Assay 1, % inhibition of kinase activity [%] | PKB-kinase (spa) Assay 2, % inhibition of kinase activity [%] | Compound | also measured |
| --- | --- | --- | --- |
| 32 | 30 | 60020-65: Arg-Pro-Arg-Dap-Glu(bAla-5-aminoethylsulfonamide isoquinoline)-Dab-Phe (RPR[Dap]E([βAla-X1])[Dab]F) |  |
| 52 | 63 | 60020-66: Arg-Pro-Arg-Dap-Glu(bAla-5-aminoethylsulfonamide isoquinoline)-Dab-Hol (RPR[Dap]E([βAla-X1])[Dab][hLeu]) |  |
| 36 | 57 | 60020-69: Arg-Pro-Arg-Dap-Glu(bAla-5-aminoethylsulfonamide isoquinoline)-Ala-Phe (RPR[Dap]E([βAla-X1])AF) |  |
| 57 | 68 | 60020-70: Arg-Pro-Arg-Dap-Glu(bAla-5-aminoethylsulfonamide isoquinoline)-Ala-Hol (RPR[Dap]E([βAla-X1])A[hLeu]) |  |
| 32 | 46 | 60020-71: Arg-Pro-Arg-Dap-Glu(bAla-5-aminoethylsulfonamide isoquinoline)-Nva-Phe (RPR[Dap]E([βAla-X1])[Nva]F) |  |
| 31 | 52 | 60020-72: Arg-Pro-Arg-Dap-Glu(bAla-5-aminoethylsulfonamide isoquinoline)-Nva-Hol (RPR[Dap]E([βAla-X1])[Nva][hLeu]) |  |
| 16 | 35 | 60020-73: Arg-Pro-Arg-Orn-Glu(bAla-5-aminoethylsulfonamide isoquinoline)-Dab-Phe (RPR[Orn]E([βAla-X1])[Dab]F) |  |
| 33 | 41 | 60020-74: Arg-Pro-Arg-Orn-Glu(bAla-5-aminoethylsulfonamide isoquinoline)-Dab-Hol (RPR[Orn]E([βAla-X1])[Dab][hLeu]) |  |
| 23 | 35 | 60020-75: Arg-Pro-Arg-Orn-Glu(bAla-5-aminoethylsulfonamide isoquinoline)-Orn-Phe (RPR[Orn]E([βAla-X1])[Orn]F) |  |
| 38 | 38 | 60020-76: Arg-Pro-Arg-Orn-Glu(bAla-5-aminoethylsulfonamide isoquinoline)-Orn-Hol (RPR[Orn]E([βAla-X1])[Orn][hLeu]) |  |
| 13 | 15 | 60020-77: Arg-Pro-Arg-Orn-Glu(bAla-5-aminoethylsulfonamide isoquinoline)-Ala-Phe (RPR[Orn]E([βAla-X1])AF) |  |
| 21 | 24 | 60020-78: Arg-Pro-Arg-Orn-Glu(bAla-5-aminoethylsulfonamide isoquinoline)-Ala-Hol (RPR[Orn]E([βAla-X1])A[hLeu]) |  |
| 13 | 35 | 60020-80: Arg-Pro-Arg-Orn-Glu(bAla-5-aminoethylsulfonamide isoquinoline)-Nva-Hol (RPR[Orn]E([βAla-X1])[Nva][hLeu]) |  |
| −17 | 42 | 60020-81: Arg-Pro-Arg-Abu-Glu(bAla-5-aminoethylsulfonamide isoquinoline)-Dab-Phe (RPR[Abu]E([βAla-X1])[Dab]F) |  |
| −9 | 56 | 60020-82: Arg-Pro-Arg-Abu-Glu(bAla-5-aminoethylsulfonamide isoquinoline)-Dab-Hol (RPR[Abu]E([βAla-X1])[Dab][hLeu]) |  |
| −21 | 60 | 60020-83: Arg-Pro-Arg-Abu-Glu(bAla-5-aminoethylsulfonamide isoquinoline)-Orn-Phe (RPR[Abu]E([βAla-X1])[Orn]F) |  |
| 10 | 51 | 60020-84: Arg-Pro-Arg-Abu-Glu(bAla-5-aminoethylsulfonamide isoquinoline)-Orn-Hol (RPR[Abu]E([βAla-X1])[Orn][hLeu]) |  |
| −27 | −2 | 60020-85: Arg-Pro-Arg-Abu-Glu(bAla-5-aminoethylsulfonamide isoquinoline)-Ala-Phe (RPR[Abu]E([βAla-X1])AF) |  |
| −55 | −5 | 60020-86: Arg-Pro-Arg-Abu-Glu(bAla-5-aminoethylsulfonamide isoquinoline)-Ala-Hol (RPR[Abu]E([βAla-X1])A[hLeu]) |  |

| PKB-kinase (spa) Assay 1, % inhibition of kinase activity [%] | PKB-kinase (spa) Assay 2, % inhibition of kinase activity [%] | Compound | also measured |
| --- | --- | --- | --- |
| −50 | 5 | 60020-87: Arg-Pro-Arg-Abu-Glu(bAla-5-aminoethylsulfonamide isoquinoline)-Nva-Phe (RPR[Abu]E([βAla-X1])[Nva]F) |  |
| −50 | 31 | 60020-88: Arg-Pro-Arg-Abu-Glu(bAla-5-aminoethylsulfonamide isoquinoline)-Nva-Hol (RPR[Abu]E([βAla-X1])[Nva][hLeu]) |  |
| 8 | 48 | 60020-89: Arg-Pro-Arg-Nle-Glu(bAla-5-aminoethylsulfonamide isoquinoline)-Dab-Phe (RPR[Nle]E([βAla-X1])[Dab]F) |  |
| 19 | 27 | 60020-90: Arg-Pro-Arg-Nle-Glu(bAla-5-aminoethylsulfonamide isoquinoline)-Dab-Hol (RPR[Nle]E([βAla-X1])[Dab][hLeu]) |  |
| 40 | 59 | 60020-92: Arg-Pro-Arg-Nle-Glu(bAla-5-aminoethylsulfonamide isoquinoline)-Orn-Hol (RPR[Nle]E([βAla-X1])[Orn][hLeu]) |  |
| −12 | 58 | 60020-93: Arg-Pro-Arg-Nle-Glu(bAla-5-aminoethylsulfonamide isoquinoline)-Ala-Phe (RPR[Nle]E([βAla-X1])AF) |  |
| 9 | 31 | 60020-94: Arg-Pro-Arg-Nle-Glu(bAla-5-aminoethylsulfonamide isoquinoline)-Ala-Hol (RPR[Nle]E([βAla-X1])A[hLeu]) |  |
| 0 | 54 | 60020-96: Arg-Pro-Arg-Nle-Glu(bAla-5-aminoethylsulfonamide isoquinoline)-Nva-Hol (RPR[Nle]E([βAla-X1])[Nva][hLeu]) |  |
|  |  | N=C(N)NCCC[C@H](NC(=O)[C@@H]1CCCN1C(=O)[C@@H](N)CCCNC(=N)N)C(=O)N[C@@H](CCCN)C(=O)N[C@@H](CO)C(=O)N[C@@H](CO)C(=O)N[C@@H](Cc1ccccc1)C(N)=O [AR 60003-52, Arg-Pro-Arg-Orn-Ser-Ser-Phe] (H-RPR[Orn]SSF-NH2; N-terminus and C-terminus assumed) | pIC50 [1]: 5.60 |
|  |  | CCCC[C@H](NC(=O)[C@H](CO)NC(=O)[C@H](CO)NC(=O)[C@H](CCCC)NC(=O)[C@H](CCCNC(=N)N)NC(=O)[C@@H]1CCCN1C(=O)[C@@H](N)CCCNC(=N)N)C(N)=O [AR 60003-62, Arg-Pro-Arg-Nle-Ser-Ser-Nle] (H-RPR[Nle]SS[Nle]-NH2) | inhibition at 1 µM (at 1 μM, Table 3, read-out: inhibition (PKB)): 70% |
|  |  | C[C@@H](O)[C@H](NC(=O)[C@H](CCCNC(=N)N)NC(=O)[C@@H]1CCCN1C(=O)[C@@H](N)CCCNC(=N)N)C(=O)N[C@@H](CO)C(=O)NC(CCC(=O)NCCNS(=O)(=O)c1cccc2cnccc12)C(=O)N[C@@H](Cc1ccccc1)C(N)=O (stereo partly shown) [PTR 6014] (H-RPRTS[ξE]([Ethylenediamine-Isoquinoline5sulfonyl])F-NH2) | pIC50 (Table 2, chimeric compounds, read-out: Activity PKB): 4.60 |
|  |  | CC[C@H](NC(=O)[C@H](CO)NC(=O)[C@@H](NC(=O)[C@H](CCCNC(=N)N)NC(=O)[C@@H]1CCCN1C(=O)[C@@H](N)CCCNC(=N)N)[C@@H](C)O)C(=O)N[C@H](COC(=O)NCCNS(=O)(=O)c1cccc2cnccc12)Cc1ccccc1 [compound 6013] (H-RPRTS[Abu][X3]-{Ethylenediamine-Isoquinoline5sulfonyl}) | pIC50 [2]: 5.40 |
|  |  | C[C@@H](O)[C@H](NC(=O)[C@H](CCCNC(=N)N)NC(=O)[C@@H]1CCCN1C(=O)[C@@H](N)CCCNC(=N)N)C(=O)N[C@@H](CO)C(=O)N[C@@H](CCC(=O)NCCNS(=O)(=O)c1cccc2cnccc12)C(=O)N[C@@H](Cc1ccccc1)C(N)=O [compound 6014] (H-RPRTSE([Ethylenediamine-Isoquinoline5sulfonyl])F-NH2) | pIC50 [2]: 4.60 |
|  |  | CCC[C@H](NC(=O)[C@H](CCCNC(=N)N)NC(=O)[C@@H]1CCCN1C(=O)[C@@H](N)CCCNC(=N)N)C(=O)N[C@@H](CCC(=O)NCCNS(=O)(=O)c1cccc2cnccc12)C(=O)N[C@@H](C)C(=O)N[C@@H](CCC(C)C)C(N)=O [compound 6150] (H-RPR[Nva]E([Ethylenediamine-Isoquinoline5sulfonyl])A[hLeu]-NH2; N-terminus assumed) | pIC50 [2]: 4.60 |
|  |  | RPRMSSF-NH2 (C-terminus assumed) [AR 60003-50, Arg-Pro-Arg-Met-Ser-Ser-Phe] | pIC50 [1]: 5.60 |
|  |  | RPRRSSF-NH2 (C-terminus assumed) [AR 60003-53, Arg-Pro-Arg-Arg-Ser-Ser-Phe] | pIC50 [1]: 5.52 |
|  |  | RPRRSSR [AR 60003-64, Arg-Pro-Arg-Arg-Ser-Ser-Arg] | Activity PKB (Table 3, linear 7-mer peptides): Not active |
|  |  | RPRTSDF [TY 60002-18, Arg-Pro-Arg-Thr-Ser-Asp-Phe] | Activity PKB (Table 3, linear 7-mer peptides): Not active |
